± gives the standard deviation of the averaged measurements.
Tested on: ATP
Assay: switch fluorescence ratio, 500 uM ATP over buffer (Cy3 cluster intensity, sum of 5 cycles each) (fold (ratio)); higher = stronger signal-on switching upon ATP binding; sequences stand for … in TCGTCGGCAGCGTCAGATGTGTATAAGAGACAGTTTTTTTTTTTTTTTTTTTTTTTTT…TC
Settings: aptamer strand: ATP DNA aptamer (quencher-CACCTGGGGGAGTATTGCGGAGGAAGG + anchor), 100 nM annealed; ATP concentration: 500 uM
Method in brief: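 Exposure to 500 uM ATP lasted 15 min at 22 °C before imaging, and a selection-buffer image was taken beforehand, for Cy3-labelled switching-strand clusters on a modified Illumina MiSeq flow-cell annealed to 100 nM quencher-labelled ATP aptamer. Five buffer/ATP cycles were run with NaOH stripping and re-annealing between them. The fluorescence ratio per cluster is summed target-cycle over summed buffer-cycle Cy3 intensity, averaged per switch-domain sequence. Clusters outside 100-1000 RFU were excluded.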

Row | Sequence | switch fluorescence ratio
1 | ACGGATTGAA | 1.003 ± 0.0058
2 | ACGGATTTAG | 1.024 ± 0.01
3 | ACGGCATTTC | 1.28 ± 0.047
4 | ACGGCCAAGG | 1.05 ± 0.031
5 | ACGGCGCTTG | 1.051 ± 0.0053
6 | ACGGCTACGG | 1.02 ± 0.018
7 | ACGGGAGTGC | 1.03 ± 0.046
8 | ACGGGATGTG | 0.978 ± 0.016
9 | ACGGGATTTC | 1.05 ± 0.028
10 | ACGGGCAACG | 0.9743 ± 0.0065
11 | ACGGGCACTT | 1.12 ± 0.041
12 | ACGGGCATCG | 1.02 ± 0.032
13 | ACGGGCCTTC | 1.03 ± 0.012
14 | ACGGGCTTAG | 1.01 ± 0.016
15 | ACGGGGAAGG | 1.03 ± 0.035
16 | ACGGGGCGGC | 1.11 ± 0.028
17 | ACGGGGCGTT | 1.01 ± 0.012
18 | ACGGGGGAGG | 1.02 ± 0.028
19 | ACGGGGGATG | 0.995 ± 0.025
20 | ACGGGGGCCG | 0.993 ± 0.041
21 | ACGGGGGTT | 0.98 ± 0.017
22 | ACGGGGTAGA | 1.03 ± 0.052
23 | ACGGGGTGTC | 1.08 ± 0.089
24 | ACGGGGTTTT | 1.01 ± 0.017
25 | ACGGGTAATT | 1.02 ± 0.037

Row | Sequence | switch fluorescence ratio
26 | ACGGGTAGGG | 1.05 ± 0.035
27 | ACGGGTTCCT | 1 ± 0.025
28 | ACGGGTTGTC | 0.981 ± 0.11
29 | ACGGGTTTGG | 1.01 ± 0.023
30 | ACGGTAGAAC | 1.04 ± 0.021
31 | ACGGTAGTGC | 1.04 ± 0.022
32 | ACGGTATTG | 1.19 ± 0.037
33 | ACGGTCAGGG | 1.046 ± 0.0074
34 | ACGGTCGGCT | 1.04 ± 0.048
35 | ACGGTGACGG | 1.02 ± 0.04
36 | ACGGTGATCA | 1.03 ± 0.038
37 | ACGGTGCCAA | 1.02 ± 0.034
38 | ACGGTGTGCG | 1 ± 0.058
39 | ACGGTTATTT | 1.072 ± 0.01
40 | ACGGTTCCAT | 0.97 ± 0.057
41 | ACGGTTGGTG | 1.01 ± 0.027
42 | ACGGTTTTTC | 1.0014 ± 0.0005
43 | ACGTAAAAGT | 1.25 ± 0.41
44 | ACGTAACATG | 1.24 ± 0.015
45 | ACGTAATGTC | 1.25 ± 0.12
46 | ACGTAATTAA | 1.13 ± 0.026
47 | ACGTAGAATG | 1.06 ± 0.015
48 | ACGTAGACGT | 1.02 ± 0.018
49 | ACGTAGTGCG | 1 ± 0.023
50 | ACGTATGTTG | 1.022 ± 0.0017

Row | Sequence | switch fluorescence ratio
51 | ACGTCAAGAG | 1.45 ± 0.0026
52 | ACGTCAGTTG | 0.975 ± 0.012
53 | ACGTCATAGT | 1.14 ± 0.047
54 | ACGTCCAAAA | 1.04 ± 0.026
55 | ACGTCCGCTA | 2.6 ± 0.064
56 | ACGTCGATGG | 0.995 ± 0.019
57 | ACGTGACCAT | 1.33 ± 0.047
58 | ACGTGAGGTT | 1.01 ± 0.059
59 | ACGTGAGTGT | 0.977 ± 0.0076
60 | ACGTGAGTTT | 0.957 ± 0.035
61 | ACGTGATTTT | 1.09 ± 0.065
62 | ACGTGCAGTC | 1.12 ± 0.083
63 | ACGTGGTCCA | 0.985 ± 0.037
64 | ACGTGGTTAG | 1 ± 0.029
65 | ACGTGTCTTG | 1.01 ± 0.013
66 | ACGTGTGATG | 0.99 ± 0.024
67 | ACGTGTTAAT | 1.005 ± 0.0017
68 | ACGTTAAATG | 1.13 ± 0.053
69 | ACGTTAAGAT | 1.29 ± 0.26
70 | ACGTTACTCA | 1.5 ± 0.032
71 | ACGTTATGTT | 1.1 ± 0.035
72 | ACGTTGCACA | 1.18 ± 0.016
73 | ACGTTTGGCT | 0.954 ± 0.028
74 | ACGTTTGTTA | 1.002 ± 0.0059
75 | ACGTTTTAA | 0.9999 ± 0.0084

Row | Sequence | switch fluorescence ratio
76 | ACTAAAAGGT | 1.01 ± 0.012
77 | ACTAAAGTGC | 1.01 ± 0.03
78 | ACTAAATATG | 1.05 ± 0.046
79 | ACTAAATCGG | 1.02 ± 0.039
80 | ACTAAGGGAG | 1.01 ± 0.005
81 | ACTAATATAT | 0.999 ± 0.04
82 | ACTAATATCG | 1.04 ± 0.036
83 | ACTAATATTG | 1.032 ± 0.0054
84 | ACTACAGCTC | 1.15 ± 0.021
85 | ACTACGTAAA | 0.997 ± 0.046
86 | ACTACTACTT | 1.16 ± 0.019
87 | ACTACTGACA | 1.24 ± 0.04
88 | ACTAGAAGAC | 1.04 ± 0.012
89 | ACTAGGGATG | 0.987 ± 0.014
90 | ACTAGTATGG | 1.03 ± 0.053
91 | ACTAGTCAAA | 1.02 ± 0.012
92 | ACTAGTGGTC | 0.992 ± 0.042
93 | ACTATCGGGT | 1.04 ± 0.028
94 | ACTATTATCT | 1.023 ± 0.0099
95 | ACTATTATTT | 0.9887 ± 0.0022
96 | ACTCAGCTGG | 1.074 ± 0.0069
97 | ACTCAGTATA | 1.1 ± 0.02
98 | ACTCAGTTGT | 1.06 ± 0.059
99 | ACTCATATCG | 0.987 ± 0.029
100 | ACTCATGTTG | 0.98166 ± 0.00011
